Reference: patent US20150087584A1 (COUNCIL OF SCIENTIFIC AND INDUSTRIAL RESEARCH, published 2015)

B1: inhibitory repeat domain IRD-12 of Capsicum annuum Pin-II proteinase inhibitors (CanPIs) (other)
chain: NRLCTNCCAGRKGCNYYSADGTFICEGESDPNNPKACPRNCDPNIAYSLC
B2: inhibitory repeat domain IRD-9 of Capsicum annuum Pin-II proteinase inhibitors (CanPIs) (other)
chain: QPICTNSSAGLKGCNYYNADGTFICEGESDPNHPKACPKNCDPNIAYSLC

Biological target: bovine trypsin (bovine, UniProt P00760 24-246)
Assay: cell-based or functional assay

bovine trypsin, sequence (P00760 24-246): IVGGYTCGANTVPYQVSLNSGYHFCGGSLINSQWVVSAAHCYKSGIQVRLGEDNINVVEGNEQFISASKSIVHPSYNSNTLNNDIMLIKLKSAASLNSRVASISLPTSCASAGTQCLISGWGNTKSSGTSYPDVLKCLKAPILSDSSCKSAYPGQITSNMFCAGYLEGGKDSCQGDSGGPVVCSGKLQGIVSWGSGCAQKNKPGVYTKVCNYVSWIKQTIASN

Row | Binder | IC50 of inhibition of bovine trypsin activity (BApNA substrate) [µM]
1 | B1 | ~65
2 | B2 | ~2.2
